Measured values reported in paper PMC2946813.

Target: human factor Xa (human) (UniProt P00742)
Assay: prothrombinase activity titration

Chain of UniProt P00742 (P00742 41-179, chain 1 of 2): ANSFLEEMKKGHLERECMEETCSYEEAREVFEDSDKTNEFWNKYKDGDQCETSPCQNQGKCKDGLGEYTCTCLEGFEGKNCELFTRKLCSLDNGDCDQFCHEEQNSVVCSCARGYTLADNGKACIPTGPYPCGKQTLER
Chain of UniProt P00742 (P00742 235-488, chain 2 of 2): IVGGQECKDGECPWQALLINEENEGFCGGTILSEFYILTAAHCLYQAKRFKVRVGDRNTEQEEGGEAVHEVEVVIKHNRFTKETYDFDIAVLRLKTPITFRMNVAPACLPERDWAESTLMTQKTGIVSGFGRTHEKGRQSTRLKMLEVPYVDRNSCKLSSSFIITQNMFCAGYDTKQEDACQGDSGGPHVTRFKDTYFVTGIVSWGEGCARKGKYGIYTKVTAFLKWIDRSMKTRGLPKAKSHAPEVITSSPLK

## plasma-derived human factor V activated with α-thrombin (from UniProt P12259 29-737) (natural protein)
  Kd: 0.67 nM
